± gives the uncertainty stated by the source.
B1: TOX high mobility group box family member 3, residues 256 to 323; numbered along this chain, O15405 (parent)
chain: QKPVSAYALFFRDTQAAIKGQNPNATFGEVSKIVASMWDSLGEEQKQVYKRKTEAAKKEYLKALAAYR
B2: POU domain, class 3, transcription factor 1, residues 247 to 324; numbered along this chain, Q03052 (parent)
chain: EDAPSSDDLEQFAKQFKQRRIKLGFTQADVGLALGTLYGNVFSQTTICRFEALQLSFKNMCKLKPLLNKWLEETDSSS

Variants of: B1
Assay: abundance fitness (aPCA) (normalised: wild type 0, dead -1); higher = more abundant; growth selection in yeast, the domain comes from the species named
Settings: Homo sapiens

Abundance fitness of substitutions, site by site:
E54: P -0.118 ± 0.055; Q -0.158 ± 0.07; G -0.328 ± 0.046; N -0.117 ± 0.07; V -0.239 ± 0.053; L -0.102 ± 0.045; I -0.012 ± 0.082; C -0.244 ± 0.084; M -0.161 ± 0.064; W -0.331 ± 0.067; S -0.211 ± 0.052; T -0.237 ± 0.064; D -0.054 ± 0.068; R -0.203 ± 0.048; F -0.193 ± 0.072
T53: C -0.092 ± 0.063; D -0.022 ± 0.066; Y 0.276 ± 0.094; H 0.12 ± 0.091; L -0.09 ± 0.038; P -0.326 ± 0.076; S 0.113 ± 0.048; W -0.152 ± 0.055; K 0.001 ± 0.098; A 0.136 ± 0.053; F 0.157 ± 0.11; R -0.111 ± 0.043; N -0.104 ± 0.056; V 0.146 ± 0.047; G 0.073 ± 0.049; E 0.257 ± 0.063; M -0.046 ± 0.096
E59: Q -0.205 ± 0.067; F -0.443 ± 0.14; C -0.366 ± 0.15; W -0.573 ± 0.085; K 0.024 ± 0.084; I -0.663 ± 0.33; M -0.51 ± 0.16; R -0.162 ± 0.053; V -0.3 ± 0.071; A -0.122 ± 0.061; S -0.166 ± 0.068; Y -0.577 ± 0.19; P -0.061 ± 0.085; L -0.39 ± 0.058; D 0.047 ± 0.11; N -0.246 ± 0.15; T -0.083 ± 0.1; G -0.242 ± 0.071; H -0.744 ± 0.34
L61: S 0.22 ± 0.049; H 0.134 ± 0.034; N -0.068 ± 0.13; M -0.138 ± 0.059; K 0.247 ± 0.076; E -0.064 ± 0.16; R 0.015 ± 0.045; G 0.08 ± 0.11; I -0.029 ± 0.062; Y -0.087 ± 0.099; T 0.135 ± 0.065; W -0.19 ± 0.08; D 0.319 ± 0.085; C -0.014 ± 0.085; V 0.119 ± 0.059; Q 0.146 ± 0.16; F -0.213 ± 0.058
Y60: V -0.073 ± 0.05; Q 0.128 ± 0.069; W -0.258 ± 0.12; S 0.039 ± 0.057; G -0.101 ± 0.091; P -0.052 ± 0.076; N -0.236 ± 0.18; R -0.129 ± 0.069; A 0.043 ± 0.059; I -0.556 ± 0.2; E 0.08 ± 0.062; T 0.148 ± 0.059; F 0.068 ± 0.29; K 0.128 ± 0.073
K58: E 0.044 ± 0.097; Y -0.279 ± 0.095; W -0.351 ± 0.083; L -0.135 ± 0.057; M -0.078 ± 0.066; R -0.043 ± 0.049; G -0.068 ± 0.051; Q 0.039 ± 0.072; A 0.016 ± 0.045; D -0.01 ± 0.094; P -0.113 ± 0.064; C -0.095 ± 0.075; N -0.089 ± 0.088; H -0.242 ± 0.15; S -0.051 ± 0.066; V 0.03 ± 0.061; T -0.079 ± 0.059; I -0.204 ± 0.13
A65: D 0.078 ± 0.084; K 0.036 ± 0.081; G 0.067 ± 0.047; S 0.042 ± 0.069; W -0.082 ± 0.079; E 0.113 ± 0.047; P 0.117 ± 0.069; F -0.111 ± 0.11; Y -0.48 ± 0.38; H -0.081 ± 0.12; N 0.098 ± 0.16; T 0.081 ± 0.093; R -0.037 ± 0.059; Q 0.004 ± 0.097; L -0.03 ± 0.056; V -0.049 ± 0.048
L64: V 0.131 ± 0.05; E 0.354 ± 0.066; Y -0.172 ± 0.075; S 0.128 ± 0.057; T 0.236 ± 0.056; G 0.241 ± 0.05; K 0.205 ± 0.06; I 0.146 ± 0.1; A -0.093 ± 0.093; P 0.33 ± 0.071; M -0.031 ± 0.15; C 0.153 ± 0.066; H 0.285 ± 0.085; F -0.273 ± 0.095; R 0.088 ± 0.054; W -0.227 ± 0.08; N 0.173 ± 0.1; D 0.323 ± 0.076
A55: N 0.001 ± 0.063; D -0.104 ± 0.07; F -0.211 ± 0.077; R -0.083 ± 0.046; I -0.148 ± 0.09; T -0.041 ± 0.064; E 0.076 ± 0.059; K 0.049 ± 0.057; P -0.157 ± 0.051; C -0.246 ± 0.095; Y -0.276 ± 0.094; W -0.297 ± 0.058; L -0.058 ± 0.041; S -0.029 ± 0.041; Q -0.001 ± 0.077; H 0.015 ± 0.053; G -0.022 ± 0.051
A56: K 0.17 ± 0.071; F -0.548 ± 0.23; W -0.463 ± 0.07; Y -0.102 ± 0.17; P -0.233 ± 0.086; V -0.054 ± 0.074; S -0.146 ± 0.052; M -0.063 ± 0.1; I -0.167 ± 0.21; C -0.104 ± 0.078; Q -0.017 ± 0.07; L -0.109 ± 0.037; E -0.007 ± 0.077; R -0.201 ± 0.054; G -0.017 ± 0.057
K52: W -0.617 ± 0.1; Y -0.28 ± 0.073; V -0.584 ± 0.072
K57: N 0.042 ± 0.077; C -0.275 ± 0.064; M 0.036 ± 0.088; F -0.23 ± 0.086; D 0.025 ± 0.063; L -0.346 ± 0.056; T -0.093 ± 0.063; A -0.034 ± 0.069; P -0.165 ± 0.065; R -0.164 ± 0.053; G -0.125 ± 0.053; Q -0.021 ± 0.09; V -0.252 ± 0.057; Y -0.282 ± 0.091; W -0.381 ± 0.11; S -0.052 ± 0.05
R68: M -0.247 ± 0.11; I -0.65 ± 0.22; L -0.126 ± 0.087; G -0.01 ± 0.078; V -0.355 ± 0.063; Y -0.292 ± 0.11; A -0.07 ± 0.1; F -0.33 ± 0.25; Q -0.044 ± 0.089; T -0.007 ± 0.078; H -0.137 ± 0.17; N 0.198 ± 0.24; K 0.101 ± 0.11; W -0.322 ± 0.22; E 0.197 ± 0.058; P 0.297 ± 0.066
K62: N -0.069 ± 0.069; P -0.142 ± 0.05; M -0.205 ± 0.057; Q -0.118 ± 0.07; L -0.344 ± 0.049; C -0.3 ± 0.078; G -0.133 ± 0.05; Y -0.396 ± 0.063; W -0.838 ± 0.11; V -0.458 ± 0.059; S -0.092 ± 0.043; A -0.022 ± 0.062; E -0.006 ± 0.059; I -0.538 ± 0.093; D 0.019 ± 0.078; F -0.519 ± 0.082; R -0.002 ± 0.038
Y67: E 0.138 ± 0.35; M 0.161 ± 0.082; V 0.323 ± 0.069; C 0.208 ± 0.064; D 0.256 ± 0.085; I -0.012 ± 0.073; L -0.044 ± 0.057; G 0.263 ± 0.053; W -0.158 ± 0.17; F -0.106 ± 0.077; A 0.263 ± 0.077; Q 0.281 ± 0.17; H 0.155 ± 0.081; K 0.244 ± 0.093; R 0.306 ± 0.063; P 0.352 ± 0.088; T 0.274 ± 0.078; N 0.288 ± 0.076
A63: E 0.285 ± 0.056; P 0.111 ± 0.048; S 0.132 ± 0.043; V -0.212 ± 0.055; D 0.08 ± 0.081; K 0.173 ± 0.062; G 0.201 ± 0.044; W -0.178 ± 0.05; N 0.107 ± 0.074; H 0.155 ± 0.079; I -0.34 ± 0.076; M -0.178 ± 0.059; Q 0.119 ± 0.064; Y -0.167 ± 0.068; F -0.637 ± 0.22; C -0.105 ± 0.089; L -0.395 ± 0.047
A66: D 0.509 ± 0.12; E 0.218 ± 0.067; C -0.038 ± 0.11; S 0.061 ± 0.052; Q 0.093 ± 0.06; P 0.182 ± 0.05; T 0.184 ± 0.061; K -0.221 ± 0.19; V 0.064 ± 0.075; H 0.124 ± 0.088; Y -0.111 ± 0.12; M -0.097 ± 0.068; R 0.056 ± 0.05; N 0.135 ± 0.075; W -0.103 ± 0.067; F -0.453 ± 0.08; I -0.333 ± 0.15

Variants of: B2
Assay: as above
Settings: Homo sapiens

Abundance fitness of substitutions, site by site:
A3: V -0.08 ± 0.07; M 0.363 ± 0.071; T 0.238 ± 0.053; Q 0.327 ± 0.08; G -0.053 ± 0.063; D -0.164 ± 0.14; S 0.238 ± 0.057; C 0.172 ± 0.11; W 0.098 ± 0.062; N 0.444 ± 0.11; Y -0.033 ± 0.28; H 0.258 ± 0.15; E -0.049 ± 0.08; R 0.222 ± 0.049; L 0.362 ± 0.059; F 0.281 ± 0.12; P 0.051 ± 0.087
E1: W 0.144 ± 0.12; Y 0.05 ± 0.21; N -0.013 ± 0.16; T 0.088 ± 0.14; D 0.359 ± 0.11; F 0.118 ± 0.3; A -0.211 ± 0.11; M 0.319 ± 0.1; L 0.135 ± 0.086; S 0.126 ± 0.1; K 0.066 ± 0.16; R 0.102 ± 0.099; V 0.103 ± 0.067; C 0.281 ± 0.41; Q 0.209 ± 0.14; I 0.3 ± 0.14; G -0.031 ± 0.06
P4: E -0.043 ± 0.079; H 0.002 ± 0.22; M 0.032 ± 0.081; I 0.13 ± 0.16; G -0.098 ± 0.052; L -0.031 ± 0.061; A 0.008 ± 0.067; C 0.126 ± 0.099; D -0.134 ± 0.12; K -0.114 ± 0.091; F -0.366 ± 0.2
D2: C 0.081 ± 0.13; S 0.453 ± 0.08; P 0.252 ± 0.11; N 0.256 ± 0.091; V 0.171 ± 0.059; W 0.001 ± 0.08; Y 0.197 ± 0.13; R 0.312 ± 0.048; I 0.413 ± 0.15; F 0.166 ± 0.1; A 0.217 ± 0.066; Q 0.267 ± 0.15; L 0.151 ± 0.066; H 0.29 ± 0.11; M 0.342 ± 0.082; T 0.459 ± 0.086; E 0.41 ± 0.068; G 0.411 ± 0.05; K 0.452 ± 0.087
